Laboratory results as given in US20170015737A1 (published 2017).

Assays:
[1] = target: recombinant human TTR F87M/L110M (human, UniProt P02766 21-147); experiment: SPR, mAb captured on anti-mouse IgG chip, TTR F87M/L110M as analyte
pH4.0-treated TTR [2] = target: T1, pH4.0-treated TTR (human, UniProt P02766 21-147); experiment: sandwich ELISA on pH4-TTR (the table prints 14.6 for 6C1)
pH4.0-treated TTR [3] = target: T1, pH4.0-treated TTR; experiment: ELISA, pH4-TTR captured on anti-His coated plate
pH4.0-treated TTR [4] = target: T1, pH4.0-treated TTR; experiment: sandwich ELISA (pH4-TTR)

B1: 6C1 (antibody, V domains shown)
VH: EVQLVESGGGLVQPGGSLKLSCAASGFTFSNYYMSWVRQTPEKRLEWVAYISIDGNNIYHPDSVKGRFTISRDNAKNTLYLQMSSLKSEDTAMYYCARDSDYGYFDVWGTGTTVTVSS
VL: DVLMTQTPLSLPVSLGDQASISCRSSQSIVHSNGNTYLEWYLQKRGQSPKLLIYKVSKRFSGVPDRFSGSGSGTDFILKISRVEAEDLGVYYCFQGSHVPLTFGGGTKLELK
- Kd [1]: 9.01 nM
- koff [1]: 0.000415 s⁻¹
- kon [1]: 46100 M⁻¹ s⁻¹
- Kd (pH4.0-treated TTR [2]): 14.5 nM
- Kd (pH4.0-treated TTR [3]): 16 nM
- Kd (pH4.0-treated TTR [4]): 14.6 nM
